{"source": "the nanobody polyreactivity screen of Harvey et al. (2022)", "data": [{"assay": "yeast display, Sf9 membrane polyspecificity reagent, FACS + sequencing; frameworks hold sequencing errors", "how_it_was_run": "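Galactose induction of a Saccharomyces cerevisiae BJ5465 synthetic nanobody display library ran 36–48 hours. The cells were then stained for 1 hour at 4 °C with 10% biotinylated, detergent-solubilized Sf9 membrane reagent, pulled down on streptavidin microbeads and FACS-sorted into low and high (top ~1%) gates on expression and reagent-binding fluorescence. Labels for polyreactivity follow the gate of origin.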", "values": [{"sequence": "QVQLVESGGGLVQAGGSLRLSCAASGLTFDPYAMGWYRQAPGKEREFVATITTSGDSTYYADSVKGRFTISRDNAKNTVYLQMNSLTPEDTAVYYCNTQSRTLGWPLDYWGQGTQVTVSS", "polyreactivity (PSR sort gate)": "high polyreactivity"}, {"sequence": "QVQLVESGGGLVQAGGSLRLSCAASGLTFDYYAMGWYRQAPGKERELVAAISIGGSTNYADSVKGRFTISRDNAKNTVYLQMNSLKPEDTAVYYCNAEFAPWGSAYGHDQYDYWGQGTQVTVSS", "polyreactivity (PSR sort gate)": "low polyreactivity"}, {"sequence": "QVQLVESGGGLVQAGGSLRLSCAASGLTFDYYAMGWYRQAPGKERELVAAISSSGGSTYYADSVKGRFTISRDNAKNTVYLQMNSLKPEDTAVYYCNAGGRRRIFAHSSTGDYWGQGTQVTVSS", "polyreactivity (PSR sort gate)": "high polyreactivity"}, {"sequence": "QVQLVESGGGLVQAGGSLRLSCAASGLTFDYYDMGWYRQAPGKERELVASITWRGSSTYYADSVKGRFTISRDNAKNTVYLQMYSLKPEDTAVYYCAADPQSTIRDYWGQGTQVTVSS", "polyreactivity (PSR sort gate)": "high polyreactivity"}, {"sequence": "QVQLVESGGGLVQAGGSLRLSCAASGLTFDYYVMGWYRQAPGKERELVATISWSGDITYYADSVKGRFTISRDNAKNTVYLQMNSLKPEDTAVYYCATDKSYSSWSAQYDYWGQGTQVTVSS", "polyreactivity (PSR sort gate)": "low polyreactivity"}, {"sequence": "QVQLVESGGGLVQAGGSLRLSCAASGLTFEDNDMGWYRQAPGKERELVAAISSAGSTSYADSVKGRFTISRDNAKNTVYLQRNSLKPDDTAVYYCAKDNSPSYTPAQLDGGDDYWGQGTQVTVSS", "polyreactivity (PSR sort gate)": "low polyreactivity"}, {"sequence": "QVQLVESGGGLVQAGGSLRLSCAASGLTFEHNAMGWYRQAPGKETEFVAVISWRGTSTYYADSVKGRFTISRDNAKNTVYLQMNSLKPEDTAVYYCATRYYGDDGYRYDHWGQGTQVTVSS", "polyreactivity (PSR sort gate)": "high polyreactivity"}, {"sequence": "QVQLVESGGGLVQAGGSLRLSCAASGLTFEKYAMGWYRQAPGKERELVAAISQDGGSTYYADSVKGRFTISRDNAKNTVYLQMNSLKPEDTAVYYCATGLGYFSRLDYWGQGTQVTVSS", "polyreactivity (PSR sort gate)": "low polyreactivity"}, {"sequence": "QVQLVESGGGLVQAGGSLRLSCAASGLTFEWYPMGWSRQAPGKERELVAAITTGGTTNYADSVKGRFTISRDNAKNTVYLQMISLKPEDTAVYYCARLYRSGYEYWGQGTHVTVSS", "polyreactivity (PSR sort gate)": "low polyreactivity"}, {"sequence": "QVQLVESGGGLVQAGGSLRLSCAASGLTFEYYAMGWYRQAPGKERELVAAISRRGSTYYADSVKGRFTISRDNAKNTVYLQMNSLKPEDTAVYYCNAVYYWYKGDYWGQGTQVTVSS", "polyreactivity (PSR sort gate)": "high polyreactivity"}, {"sequence": "QVQLVESGGGLVQAGGSLRLSCAASGLTFFLYAMGWYRQAPGKERELVAAISSRGGSTYYADSVKGRFTISRDNAKNTVYLQMNSLKTEDTAVYYCAAATKGDEDYWGQGTQVTVSS", "polyreactivity (PSR sort gate)": "high polyreactivity"}, {"sequence": "QVQLVESGGGLVQAGGSLRLSCAASGLTFFYYAMGWYRQAPGKERELVASITWRSGSTYYADSVKGRFTISRDNAKNTVYLQMNSLKPEDTAVYYCAAYPYTYLQLMDYWGQGTQVTVSS", "polyreactivity (PSR sort gate)": "high polyreactivity"}, {"sequence": "QVQLVESGGGLVQAGGSLRLSCAASGLTFGAYAMGWYRQAPGKEREFVAAITYSGGSTNYADSVKGRFTISRDNAMNTVYLQMNSLKPEDTAVYYCNAGYYSPWAFYPYDYWGQGTQVTVSS", "polyreactivity (PSR sort gate)": "high polyreactivity"}, {"sequence": "QVQLVESGGGLVQAGGSLRLSCAASGLTFGAYAMGWYRQAPGKERELVSAISWSGNTYYADSVKGRFTISRDNAKNTVYLQMNSLKPEDTAGYYCAVRSYGHGFDYWGQGTQVTVSS", "polyreactivity (PSR sort gate)": "high polyreactivity"}, {"sequence": "QVQLVESGGGLVQAGGSLRLSCAASGLTFGGNAMGWYSQAPGKERELVAALSWSDDTTDYADSVKGRFTISRDNAKYTVYLQMNSLKPEDTAVYYCAARLPFEHVDYWGQGTQVTVSS", "polyreactivity (PSR sort gate)": "low polyreactivity"}, {"sequence": "QVQLVESGGGLVQAGGSLRLSCAASGLTFGGYAMGWYRQAPGKERELVAAISRSGTSTYYADSVKGRFTISRDNAKNTVYLQMNSLKPEDTAVYYCAKELYSWLQGYRGEGTMDYWGQGTQVTVSS", "polyreactivity (PSR sort gate)": "high polyreactivity"}, {"sequence": "QVQLVESGGGLVQAGGSLRLSCAASGLTFGIYDMGWYRQAPGKERELVAGIRWSGGDSTYYADSVKGRFTNSRDNAKNTVYLQMNSLKPEDTAVYYCAARLYRWGGGLSRDKHGYWGQGTQVTVSS", "polyreactivity (PSR sort gate)": "low polyreactivity"}, {"sequence": "QVQLVESGGGLVQAGGSLRLSCAASGLTFGNYAMGWDRQAPGKERELVAAISWGGGITYYADSVKGRFTISRDIAKNTVYLQMNSLKPEDTAVYYCAADVYFNSTPDYLYDYWGQGTQVTVSS", "polyreactivity (PSR sort gate)": "low polyreactivity"}, {"sequence": "QVQLVESGGGLVQAGGSLRLSCAASGLTFGPYAMGWYRQAPGKERELVAAITSGGRTYYADSVKGRFTISRDNAKNTVYLKMNSLKPEDTAVYYCAADPLSGYDYWGQGTQVTVSS", "polyreactivity (PSR sort gate)": "low polyreactivity"}, {"sequence": "QVQLVESGGGLVQAGGSLRLSCAASGLTFGSKAMGWYRQAPGKERELLAAISWNGGSTSYADSVKGRFTISRDNAKHTVYLQMNSLKPEDTAVNYCAADYFDSSYQPTDSILYEYWGQGTQVTVSS", "polyreactivity (PSR sort gate)": "low polyreactivity"}, {"sequence": "QVQLVESGGGLVQAGGSLRLSCAASGLTFGWNAMGWYRQAPGKERESVAAISYNGVSTHYADSVKGRFTISRDNAKNTVYLQMNSLKPEDTAVYYCAARALTWPYGGTAPRLYNYWGQGTQVTVSS", "polyreactivity (PSR sort gate)": "low polyreactivity"}, {"sequence": "QVQLVESGGGLVQAGGSLRLSCAASGLTFGYYAMGWYRQAPGKERELVAAISSSGGRTYYADSVKGRFTISRDNAKNTVYLQMNSLKPEDSAVYYCAKSRYATQTDYNYWGQGTQVTVSS", "polyreactivity (PSR sort gate)": "high polyreactivity"}, {"sequence": "QVQLVESGGGLVQAGGSLRLSCAASGLTFGYYAMGWYRQAPGKERELVAVISGGGGTHYADSVKGRFTISRDNAKNTVYLQMNSLKPEDTAVYYCAAYTYRRYDYWGQGTQVTVSS", "polyreactivity (PSR sort gate)": "high polyreactivity"}, {"sequence": "QVQLVESGGGLVQAGGSLRLSCAASGLTFHRYAMGWYRQAPGKERELVAAINYSGGRTYYADSVKGRFTISRDNAKNTVYLQMNSLKPEDTAVYYCAASLYRRQMDHWGQGTQVTVSS", "polyreactivity (PSR sort gate)": "high polyreactivity"}, {"sequence": "QVQLVESGGGLVQAGGSLRLSCAASGLTFHYYDMGWYRQAPGKERELVAAISTGGGTYYADSVKGRFTISRDNAKNTVYLQMNSLKPEDTAVYYCAAETQHSYFVFSYYWGQGTQVTVSS", "polyreactivity (PSR sort gate)": "high polyreactivity"}, {"sequence": "QVQLVESGGGLVQAGGSLRLSCAASGLTFIKYAMGWYRQAPGKEREFVADISKRGGTTYYADSVKGRFTISRDTEKNTVYLQMNSLKPEDTAVYYCAARQYLNVYYRYDYWGQGTQVTVSS", "polyreactivity (PSR sort gate)": "high polyreactivity"}, {"sequence": "QVQLVESGGGLVQAGGSLRLSCAASGLTFKKYAMGWYRPAPGKERELVAAISSGSTTYYADSVKGRFTISRDNAKNTVYLQMNSLKPEDTAFYYCAARRKGTVASMGYWGQGTQVTVSS", "polyreactivity (PSR sort gate)": "high polyreactivity"}, {"sequence": "QVQLVESGGGLVQAGGSLRLSCAASGLTFKRNAMGWYRQAPGKERELVAAIRYSTDSTNYADSVKGRFTISRDNAMYTVYLQMNSLKPEDTAVYYCAKDKQDYEYWGQGTQVTVSS", "polyreactivity (PSR sort gate)": "low polyreactivity"}, {"sequence": "QVQLVESGGGLVQAGGSLRLSCAASGLTFKRYAMGWYRQAPGKERELVASITGNGGSTYYADSVKGRFTISRDNAKNTVYLQMNSLKPEDTAVYYCNARRYVRTSQQPLYDYWGQGTQVTVSS", "polyreactivity (PSR sort gate)": "high polyreactivity"}, {"sequence": "QVQLVESGGGLVQAGGSLRLSCAASGLTFKSYAMGWNRQAPGKERELVAVISSSGGRTYYADSVKGRFTISRDNAKNTVYLQMNSLKPEDTAVYYCAADGSYGKWGGHAMYYLGQGTQVTVSS", "polyreactivity (PSR sort gate)": "high polyreactivity"}, {"sequence": "QVQLVESGGGLVQAGGSLRLSCAASGLTFKVNAMGWYRQAPGRGRELVAAISVSGGSTYYADSVKGRFTISRDNAKNTVYLQMNSLKPEDTAVYYCNADFYYRYYGAYDYWGQGTQVTVSS", "polyreactivity (PSR sort gate)": "high polyreactivity"}, {"sequence": "QVQLVESGGGLVQAGGSLRLSCAASGLTFKVYDMGWYRKAPGKERELVAAIWSDGDTYYADSVKGRFTISRDNAKNTVYLQMNSLKPEDTGVYYCAAVPGCTVHFVYGNKYDYWGQGTQVTVSS", "polyreactivity (PSR sort gate)": "low polyreactivity"}]}]}
